Test results published in KR20230076376A.

Biological target: SFTSV Gc 변이체 (Severe Fever with Thrombocytopenia Syndrome Virus)

B1: anti-Gc (ectodomain) 변이체 Fab 클론 Gc-3-1E12 (Fab, V domains shown)
VH: EVQLVESGGGLVQPGGSLRLSCAASGFTFSDYAMHWVRQAPGKGLEWVSGISSSGGSTFYADSVKGRFTISRDNSKNTLYLQMNSLRAEDTAVYYCAKWEWGYQERKWAFDLWGQGTLVTVSS
VL: DIQMTQSPSSLSASVGDRVTITCRASQSISNYLNWYQQKPGKAPKLLIYATSSLQSGVPSRFSGSGSGTDFTLTISSLQPEDFATYYCQQTYSFPWTFGQGTKVEIK
**Q.** With B1 as the binder, how does the EC50 read?
**A.** 6 nM

B2: anti-Gc (ectodomain) 변이체 Fab 클론 Gc-b3-1E2 (Fab, V domains shown)
VH: EVQLVESGGGLVQPGGSLRLSCAASGFTFSNYAMNWVRQAPGKGLEWVSAISGSGSSTYYADSVKGRFTISRDNSKNTLYLQMNSLRAEDTAVYYCAKQFYVGQWLSGWFDVWGQGTLVTVSS
VL: DIQMTQSPSSLSASVGDRVTITCRASQSISNYLNWYQQKPGKAPKLLIYATSRLQSGVPSRFSGSGSGTDFTLTISSLQPEDFATYYCQQSYSFPWTFGQGTKVEIK
**Q.** With B2 as the binder, how does the EC50 read?
**A.** 89 nM

B3: anti-Gc (ectodomain) 변이체 Fab 클론 Gc-4-1C8 (Fab, V domains shown)
VH: EVQLVESGGGLVQPGGSLRLSCAASGFTFSDYAMNWVRQAPGKGLEWVSSISSSGSSTYYADSVKGRFTISRDNSKNTLYLQMNSLRAEDTAVYYCAKVKWRQSTSEYFDYWGQGTLVTVSS
VL: DIQMTQSPSSLSASVGDRVTITCRASQTISNYLNWYQQKPGKAPKLLIYAASTLQSGVPSRFSGSGSGTDFTLTISSLQPEDFATYYCQQSYSFPWTFGQGTKVEIK
**Q.** For B3, which EC50 is on record?
**A.** 157 nM
